Laboratory results: publication PMC5125937 (Molecules and Cells, 2016)
Numbering of substitutions follows the chain as printed. In names and notes the source's numbering stands.

B1: EcZapD WT (residues 1-247) (natural protein)
chain: MQTQVLFEHPLNEKMRTWLRIEFLIQQLTVNLPIVDHAGALHFFRNVSELLDVFERGEVRTELLKELDRQQRKLQTWIGVPGVDQSRIEALIQQLKAAGSVLISAPRIGQFLREDRLIALVRQRLSIPGGCCSFDLPTLHIWLHLPQAQRDSQVETWIASLNPLTQALTMVLDLIRQSAPFRKQTSLNGFYQDNGGDADLLRLNLSLDSQLYPQISGHKSRFAIRFMPLDTENGQVPERLDFELACC

How the values were obtained:
SEC-MALS = target: the molecule itself; experiment: SEC-MALS
[1] = target: B1; experiment: BLI
[2] = target: T1, EcZapD E22R (residues 1-247) (E. coli, UniProt P36680 1-247, E22R); experiment: BLI
T1 sequence: B1 chain with E22R

[3] = target: T2, EcZapD H140R (residues 1-247) (E. coli, UniProt P36680 1-247, H140R); experiment: BLI
T2 sequence: B1 chain with H140R

## B1
SEC-MALS
  stoichiometry N: 2

## KEPDYLDIPAFLR [GST-FtsZ_(367-379)]
[1]
  Kd: > 2000 µM

## KEPDYLDIPAFLRKQAD [GST-FtsZ_(367-383)]
[2]
  Kd: 68 ± 2.2 µM
[3]
  Kd: 16 ± 1 µM
[1]
  Kd: 4.4 ± 0.5 µM

## KEPDYLDIPAFLRDQAD [GST-FtsZ_(367-383) K380D]
[1]
  Kd: 4.7 ± 0.5 µM
